Experimental findings from publication PMC3828517 (Genes & Development, 2013) are described below.

Data set [1] concerns the target Lrp6 β-propeller domains 1–2 (BP1–2), His8-tagged (human). As to the kind of experiment: AlphaScreen or HTRF. For orientation: Alpha assays give light when donor and acceptor beads are brought close together.
The data set “crystal structure” concerns the molecule itself. As to the kind of experiment: crystal structure.
Data set [2] deals with T1, MBP-Norrin (human Norrin residues 25–133 fused to the C terminus of maltose-binding protein) (human), Q00604.
T1 chain: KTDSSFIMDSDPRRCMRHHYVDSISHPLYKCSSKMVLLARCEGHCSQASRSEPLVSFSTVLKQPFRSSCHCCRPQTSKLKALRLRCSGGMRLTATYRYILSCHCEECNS
As to the kind of experiment: SEC. The settings on record: remark: other sources report otherwise.

For data set [3], the target named is T2, Fz4-FcH6 (Frizzled 4 cysteine-rich domain fused with an FcH6 tag) (human, UniProt Q9ULV1 40-164).
T2 sequence: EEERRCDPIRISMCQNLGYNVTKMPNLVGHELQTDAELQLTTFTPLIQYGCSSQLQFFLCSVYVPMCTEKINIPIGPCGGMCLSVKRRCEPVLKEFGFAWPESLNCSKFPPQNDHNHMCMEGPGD
As to the kind of experiment: AlphaScreen or HTRF.

Data set [4] has as its target T3, Lrp6BP2-FcH6 (Lrp6 β-propeller 2 as an Fc fusion protein) (human, UniProt O75581 325-631).
T3 sequence: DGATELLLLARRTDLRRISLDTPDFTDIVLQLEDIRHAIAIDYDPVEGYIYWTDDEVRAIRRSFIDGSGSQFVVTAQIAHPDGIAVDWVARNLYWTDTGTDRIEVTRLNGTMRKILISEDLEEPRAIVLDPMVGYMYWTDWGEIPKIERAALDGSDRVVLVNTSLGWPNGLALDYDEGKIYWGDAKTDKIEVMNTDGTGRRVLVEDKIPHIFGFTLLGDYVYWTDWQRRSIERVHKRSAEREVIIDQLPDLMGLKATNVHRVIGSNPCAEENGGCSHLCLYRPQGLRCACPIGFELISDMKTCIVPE
Description: BLI.

Data set [5] has as its target T2, Fz4-FcH6 (Frizzled 4 cysteine-rich …). As to the kind of experiment: BLI. In general terms: In BLI a coated tip is dipped into the sample, and binding shifts an interference pattern.
In data set [6] the target is T3, Lrp6BP2-FcH6 (Lrp6 β-propeller 2 as an …). Description: AlphaScreen or HTRF.

On to “MBP-Norrin C55A/C110A mutant protein (from UniProt Q00604 25-133) (ligand)”, for which, in data set [1], the IC50 was 0.207 µM.

In data set [1], “MBP-Norrin R41E mutant protein (from UniProt Q00604 25-133) (ligand)” displayed an IC50 of 0.288 µM.

B1: MBP-Norrin truncation construct (Norrin residues 31–133 fused with MBP at its N terminus), as crystallized (ligand)
chain: IMDSDPRRCMRHHYVDSISHPLYKCSSKMVLLARCEGHCSQASRSEPLVSFSTVLKQPFRSSCHCCRPQTSKLKALRLRCSGGMRLTATYRYILSCHCEECNS
Regarding B1, in “crystal structure”, the binding result was “binds”.

B2: MBP-Norrin (human Norrin residues 25–133 fused to the C terminus of maltose-binding protein), Q00604 25-133 (ligand)
chain: KTDSSFIMDSDPRRCMRHHYVDSISHPLYKCSSKMVLLARCEGHCSQASRSEPLVSFSTVLKQPFRSSCHCCRPQTSKLKALRLRCSGGMRLTATYRYILSCHCEECNS
In data set [2], B2 had a stoichiometry N of 2.

B3: MBP-Norrin (human Norrin residues 25–133 fused to the C terminus of maltose-binding protein) (ligand)
chain: KTDSSFIMDSDPRRCMRHHYVDSISHPLYKCSSKMVLLARCEGHCSQASRSEPLVSFSTVLKQPFRSSCHCCRPQTSKLKALRLRCSGGMRLTATYRYILSCHCEECNS
For the molecule B3, the midpoint of inhibition in data set [3], the IC50, lay at 0.034 µM. Moreover, the binding result in data set [4] is “binds”. In data set [5], this molecule yielded a dissociation constant (Kd) of 0.005 µM.

B4: biotinylated MBP-Norrin (AviTag-MBP-Norrin, biotinylated in vivo) (ligand)
chain: KTDSSFIMDSDPRRCMRHHYVDSISHPLYKCSSKMVLLARCEGHCSQASRSEPLVSFSTVLKQPFRSSCHCCRPQTSKLKALRLRCSGGMRLTATYRYILSCHCEECNS
modifications: biotin on the AviTag (in vivo biotinylation by BirA)
Regarding B4, the binding result in data set [6] is listed as “binds”. The Kd in data set [3] turned out to be 0.011 µM.

B5: MBP-Norrin K54E/R109E mutant protein (ligand)
chain: KTDSSFIMDSDPRRCMRHHYVDSISHPLYECSSKMVLLARCEGHCSQASRSEPLVSFSTVLKQPFRSSCHCCRPQTSKLKALRLECSGGMRLTATYRYILSCHCEECNS
Consider B5, for which the half-inhibitory concentration (IC50) in data set [3] stood at 0.018 µM.

B6: MBP-Norrin C55A/C110A mutant protein (ligand)
chain: KTDSSFIMDSDPRRCMRHHYVDSISHPLYKASSKMVLLARCEGHCSQASRSEPLVSFSTVLKQPFRSSCHCCRPQTSKLKALRLRASGGMRLTATYRYILSCHCEECNS
In data set [3], B6 had a concentration for half-maximal inhibition (IC50) of 0.037 µM.

The term IC50 denotes the concentration that inhibits the measured activity by half. Usually stoichiometry N stands for the number of molecules, sites or subunits per partner or assembly. What is called Kd is the equilibrium constant for the complex coming apart. Low readings indicate higher affinity, high ones lower affinity.
